Drawing on paper PMC8208478, “A Bacteriophage DNA Mimic Protein Employs a Non-specific Strategy to Inhibit the Bacterial RNA Polymerase” (Frontiers in Microbiology, 2021), this text covers Kd for one molecule.

This assay deals with T1, His-tagged Gp44, full length (1–237) (bacteriophage SPO1).
T1 construct: Gp44, product of gene 44 of bacteriophage SPO1 of Bacillus subtilis, full length, residues 1-237, 27 kDa; The purified constructs came from pET-46 EK/LIC, which adds an N-terminal His-tag; C-terminal His-tagged and tag-free constructs (pDE2) were also made; PDB 6L6V holds only residues 1-55; also called Gp44^(1–237); recombinant Gp44; not shown: His-tag, N-terminal, kept
The assay is described as follows: ITC; MicroCal PEAQ-ITC, 25°C, dialysis buffer; 30 μM β or β′ subunit in the cell, 300 μM Gp44 in the syringe, 19 injections of 2 μL at 120 s intervals. To be noted: both partners purified.

B1: recombinant RNAP β subunit used in ITC (species not named) (natural protein)
chain: MTGQLVQYGRHRQRRSYARISEVLELPNLIEIQTSSYQWFLDEGLREMFQDISPIEDFTGNLSLEFIDYSLGEPKYPVEESKERDVTYSAPLRVKVRLINKETGEVKDQDVFMGDFPIMTDTGTFIINGAERVIVSQLVRSPSVYFSGKVDKNGKKGFTATVIPNRGAWLEYETDAKDVVYVRIDRTRKLPVTVLLRALGFGSDQEILDLIGENEYLRNTLDKDNTENSDKALLEIYERLRPGEPPTVENAKSLLDSRFFDPKRYDLANVGRYKINKKLHIKNRLFNQRLAETLVDPETGEILAEKGQILDRRTLDKVLPYLENGIGFRKLYPNGGVVEDEVTLQSIKIFAPTDQEGEQVINVIGNAYIEEEIKNITPADIISSISYFFNLLHGVGDTDDIDHLGNRRLRSVGELLQNQFRIGLSRMERVVRERMSIQDTNTITPQQLINIRPVIASIKEFFGSSQLSQFMDQTNPLAELTHKRRLSALGPGGLTRERAGMEVRDVHYSHYGRMCPIETPEGPNIGLINSLSSYAKVNRFGFIETPYRRVDPETGKVTGRIDYLTADEEDNYVVAQANARLDDEGAFIDDSIVARFRGENTVVSRNRVDYMDVSPKQVVSAATACIPFLENDDSNRALMGANMQRQAVPLMQPEAPFVGTGMEYVSGKDSGAAVICKHPGIVERVEAKNVWVRRYEEVDGQKVKGNLDKYSLLKFVRSNQGTCYNQRPIVSVGDEVVKGEILADGPSMELGELALGRNVMVGFMTWDGYNYEDAIIMSERLVKDDVYTSIHIEEYESEARDTKLGPEEITRDIPNVGEDALRNLDDRGIIRIGAEVKDGDLLVGKVTPKGVTELTAEERLLHAIFGEKAREVRDTSLRVPHGGGGIIHDVKVFNREDGDELPPGVNQLVRVYIVQKRKISEGDKMAGRHGNKGVISKILPEEDMPYLPDGTPIDIMLNPLGVPSRMNIGQVLELHMGMAARYLGIHIASPVFDGAREEDVWETLEEAGMSRDAKTVLYDGRTGEPFDNRVSVGIMYMIKLAHMVDDKLHARSTGPYSLVTQQPLGGKAQFGGQRFGEMEVWALEAYGAAYTLQEILTVKSDDVVGRVKTYEAIVKGDNVPEPGVPESFKVLIKELQSLGMDVKILSGDEEEIEMRDLEDEEDAKQADGLALSGDEEPEETASADVERDVVTKE
Turning to B1, binding was characterised by a dissociation constant (Kd) of 3.46 ± 0.27 µM.
